This note sets out measurements from publication PMC6879534, “Structural basis for DNA unwinding at forked dsDNA by two coordinating Pif1 helicases” (Nature Communications, 2019).

Series [1] relates to BaPif1. The conditions noted are these: ssDNA-stimulated ATPase.
Series [2] has as its target BaPif1 (Bacteroides fragilis, UniProt Z9XEH3VG65). The settings on record: ssDNA-stimulated ATPase.
The target in series [3] is BaPif1 E323A/K405A (Bacteroides sp (abstract); Bacterioides fragilis (methods)).
The target in series [4] is BaPif1 F379A (Bacteroides fragilis (title/abstract: Bacteroides sp)) (UniProt A0A373G551). The series can be described thus: fluorescence polarization. The settings on record: Fluorescence polarization: 2.5 nM T15-3'F, buffer and temperature not in the material; crystals: 80 mM NaCl, 40 mM sodium cacodylate pH 6.0, 35% MPD, 12 mM …. In general terms: In fluorescence polarisation assays a small probe gives low polarisation when free and higher when bound to something large.

Series [5] deals with BaPif1 H236A (Bacteroides fragilis (title/abstract: Bacteroides sp)) (UniProt A0A373G551). The series can be described thus: fluorescence polarization. The conditions noted are these: Fluorescence polarization: 2.5 nM T15-3'F, buffer and temperature not in the material; crystals: 80 mM NaCl, 40 mM sodium cacodylate pH 6.0, 35% MPD, 12 mM ….
The target of series [6] is BaPif1 wild type (Bacteroides fragilis (title/abstract: Bacteroides sp)) (UniProt A0A373G551). The series can be described thus: fluorescence polarization. The conditions noted are these: Fluorescence polarization: 2.5 nM T15-3'F, buffer and temperature not in the material; crystals: 80 mM NaCl, 40 mM sodium cacodylate pH 6.0, 35% MPD, 12 mM ….

The term Kd denotes the equilibrium constant for the complex coming apart.

Chain of BaPif1 (5FHD_1 entry or part of it E323K): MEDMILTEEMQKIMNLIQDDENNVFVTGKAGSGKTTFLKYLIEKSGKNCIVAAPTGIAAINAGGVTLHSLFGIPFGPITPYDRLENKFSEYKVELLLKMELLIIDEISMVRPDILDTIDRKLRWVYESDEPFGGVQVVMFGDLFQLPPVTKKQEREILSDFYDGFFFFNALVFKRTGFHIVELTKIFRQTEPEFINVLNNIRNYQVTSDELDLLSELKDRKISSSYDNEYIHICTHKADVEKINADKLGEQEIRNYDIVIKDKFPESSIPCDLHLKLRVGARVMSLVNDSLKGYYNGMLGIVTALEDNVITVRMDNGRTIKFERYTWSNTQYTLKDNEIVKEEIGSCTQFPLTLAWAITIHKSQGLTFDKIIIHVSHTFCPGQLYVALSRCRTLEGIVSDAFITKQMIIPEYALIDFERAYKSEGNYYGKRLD

As to `Nc1ncnc2c1ncn2[C@@H]1O[C@H](COP(=O)(O)OP(=O)(O)OP(=O)(O)O)[C@@H](O)[C@H]1O` [ATP], the ATP hydrolysis rate entry was “The rates of ATP hydrolysis by both the E323A/K405A and E323K variants” in series [1]; “only slightly increased relative to the wild type enzyme” in series [2].
Turning to BaPif1 E323A/K405A (enzyme), in series [3], the rate of unwinding of the leading duplex (rapid chemical quench flow, single turnover) stood at 33 s⁻¹ and the rate of unwinding of the parental duplex (rapid chemical quench flow, single turnover) came to 31 s⁻¹.
On to TTTTTTTTTTTTTTT [T15-3'F], for which the dissociation constant Kd in series [4] came out at 250 nM; in series [5], 200 nM; in series [6] it was 74 nM.
